Assay: Size exclusion chromatography (SEC, gelfiltration) migration of insulin analogues and mixtures relative to the standards X2 (monomer) and HSA
Format: physicochemical
Conditions: D 1.2 mM, Zn 0.6 mM
Protocol: Migration of the insulin analogues and insulin analogue combinations were measured in relation to the standards mentioned below.
The test mixtures were formulated with conventional pharmaceutical adjuvants and additives. All mixtures were formulated with 16/16 mM phenol/cresol. Zinc was added as zinc acetate in various amounts. pH was 7.5.
Size exclusion chromatography (SEC) was performed essentially as described in Havelund et al. 2004 Pharmaceutical research, 21, 1498-1504. The chromatographic system was a Superose 6 HR PC 6/30 column (GE healthcare) eluted by tris-buffered isotonic saline (NaCl-140 mM, tris/HCl 10 mM, NaN3 0.01%, pH 7.5 at 37° C., injecting 1% of column volume and using a flow of 90 min per column volume and UV detection at 276 nm. The references were a stable insulin monomeric insulin X2 (AspB9, GluB27 human insulin, zinc free), a stable hexameric insulin: Co(III) insulin, albumin (HSA), and covalent albumin (formed in solution).

Lys^B29(N^ε-(N-lithocholyl-γ-glutamyl)) des(B30) human insulin [Compound D]
Measured SEC migration % HSA: 78%
Measured SEC migration % X2: 15%

Reference: US20110009314A1, “Single-Chain Insulin Analogues and Pharmaceutical Formulations Thereof” (Novo Nordisk A/S, priority 2006, published 2011)
